Laboratory results from patent US8476407B2, “Metallopeptide catalysts” (William Marsh Rice University, priority 2009, dated 2013).
Marks after values point to notes of the source that are not given here. Residues, ends and D or L forms follow the SMILES beside them. No end group written: not given here.

How the values were obtained:
[1] = Circular dichroism (CD) helicity of peptides and dirhodium adducts; format: physicochemical; conditions: for [θ]220, residual molar ellipticity: CD at 220 nm, water; for effect of dirhodium binding on helicity (in words): CD spectroscopy; for fH, helicity content: calculated from [θ]220, fH = ([θ]220 − [θ]c)/([θ]inf − [θ]c); for Rel. Hel %, relative helicity: calculated with [θ]inf = [θ]220 of EE4-Rh2(OAc)2; for fH (TFE), helicity content: calculated with [θ]inf = [θ]220 of EE4 in 100% TFE
Method: Peptides were prepared having 18 amino acids and a propensity toward helicity due to an alanine-rich sequence (Table 1). A complete turn of an α-helix requires about three or four amino acids, so carboxylate side chains (Asp, Glu) were placed in an i, i+3 or an i, i+4 relationship.
The peptides reacted with cis-Rh2(OAc)2(TFA)2, producing adducts with bridging dirhodium centers for both i, i+3 and i, i+4 carboxylate spacing. Circular dichroism (CD) spectroscopy assessed the effect of dirhodium binding on helicity.

[2] = test system: K3a,eRh2; test: Covalent modification of E3gX peptides with diazo reagent 1 catalysed by K3a,eRh2; format: biochemical; conditions: for krel, relative modification rate: initial rate of product formation at 1 hour, corrected for catalyst concentration; for modification of variable residue (in words): metallopeptide catalyst K3a,eRh2 and diazo reagent 1
Method: Binding the dirhodium center at positions a and e ensures that the metal will be held proximal to the coil-coil interface, and the a, e spacing serves to stabilize the necessary helical structure.
Covalent modification of variable residue g was then examined.
Relative modification rates (krel) were based on conversion at 1 hour, which corrects for catalyst loading and assumes first-order catalysis.

[3] = biological target: T1, bZip domain of c-Fos (Homo sapiens, UniProt P01100, A167K/D174T/K188A/T181D); test: Covalent modification of c-Fos with diazo reagent 1 catalysed by metallopeptide; format: biochemical; conditions: for conversion of c-Fos: 45 h, metallopeptide and diazo 1 added in small portions; for c-Fos residue modified: MS/MS fragmentation analysis
T1 sequence (P01100 162-193 A167K/D174T/T181D/K188A limits assumed): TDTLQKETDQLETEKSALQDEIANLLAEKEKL
Method: FIG. 5. MALDI-TOF MS spectra of c-Fos (SEQ ID NO: 15) modification catalyzed by Jun(Rh2) (A) (SEQ ID NO: 14) and Max(Rh2) (B)(SEQ ID NO: 16). Reactions were 100 μM in substrate at pH 6.5. Metallopeptide and diazo 1 were added portion-wise to final concentrations of 200 μM and 5 mM, respectively. Sequences illustrate the expected alignment of the coiled coils and the site of modification (B) In the inset table, the ratio in parentheses indicates the ratio of singly to doubly modified product.
Metallopeptide Jun(Rh2) was prepared based on an affinity-optimized c-Jun variant with glutamate residues in g and […] positions. The target was the bZip domain of c-Fos, an oncogene product that regulates transcription by forming a heterodimeric coiled coil with c-Jun.
(§1) Purified Jun variant was metalated with Rh2(OAc)2(tfa)2 in aqueous buffer. […] In initial studies at 4° C., crude Jun(Rh2) directly from the metalation process could be used in modification reactions with activity identical to that of purified material, thus avoiding time-consuming and unnecessary material loss that accompanied isolation.
Catalytic activity was also investigated for a second metallopeptide based on the leucine-zipper Max.
For Jun(Rh2), MALDI-TOF MS/MS analysis established that Gln19 (position e) was modified. […] In the case of Max(Rh2), the dominant fragmentation pathway was cleavage of the modifying group.

[4] = biological target: T2, Fos (Homo sapiens, UniProt P01100, A167K/D174T/K188A/T181D); test: Temperature-dependent folding of Fos-metallopeptide coiled coil; format: physicochemical; conditions: Fos-Max(Rh2) temperature-dependent folding
T2 sequence (P01100 162-193 A167K/D174T/T181D/K188A limits assumed): T1 sequence (P01100 162-193 A167K/D174T/T181D/K188A limits assumed)
Method: Amazingly, site-specific reactivity can be templated on molecular recognition in interactions with such low affinities that they are uncharacterizable by available methods. Because metallopeptide Jun(Rh2) has ≧100 μM affinity for Fos, reactions at 10 μM successful even though the desired Fos-Jun(Rh2) dimer is not the major species.

[5] = Solubility on isolation; format: physicochemical; conditions: isolation after metalation in aqueous buffer
Method: as §1

[6] = 50 mol % K3a,eRh2, 10 mM diazo 1 added in two portions, 50 μM substrate, pH 6.2
[7] = 20 mol % K3a,eRh2, 10 mM diazo 1 added in two portions, 50 μM substrate, pH 6.2

Ac-YGKAAAAEAADAKAAAAK-NH2 [ED3]
[θ]220, residual molar ellipticity [1]: -11400 deg cm^2 dmol-res^-1 | effect of dirhodium binding on helicity (in words) [1]: completely disrupt helicity | fH, helicity content [1]: 38 | Rel. Hel %, relative helicity [1]: 70% | fH (TFE), helicity content [1]: 43

N[C@@H](CS)C(=O)O [Cys]
% conv. at 24 h ([2]; 10 mol % K3a,eRh2, 2.5 mM diazo 1, 50 μM substrate, pH 6.2, room temperature): 78% | krel, relative modification rate [2]: 560

Ac-YGKAAAAEAAEAKAAAAK-NH2 [EE3]
[θ]220, residual molar ellipticity [1]: -11500 deg cm^2 dmol-res^-1 | effect of dirhodium binding on helicity (in words) [1]: increased helical | fH, helicity content [1]: 39 | Rel. Hel %, relative helicity [1]: 70% | fH (TFE), helicity content [1]: 44

N[C@@H](Cc1c[nH]cn1)C(=O)O [His]
% conv. at 24 h [2, 6]: 17^g % | krel, relative modification rate [2]: 20 | modification of variable residue (in words) [2]: modest conversion

Ac-YGKAAAAEAGEAKAAAAK-NH2 [EE3G]
[θ]220, residual molar ellipticity [1]: -2500 deg cm^2 dmol-res^-1 | effect of dirhodium binding on helicity (in words) [1]: becomes helical | fH, helicity content [1]: 13 | Rel. Hel %, relative helicity [1]: 24% | fH (TFE), helicity content [1]: 15

Ac-YGKAAAADAAADKAAAAK-NH2 [DD4]
[θ]220, residual molar ellipticity [1]: -5700 deg cm^2 dmol-res^-1 | effect of dirhodium binding on helicity (in words) [1]: increased helicity | fH, helicity content [1]: 22 | Rel. Hel %, relative helicity [1]: 41% | fH (TFE), helicity content [1]: 25

Ac-YGKAAAADAADAKAAAAK-NH2 [DD3]
[θ]220, residual molar ellipticity [1]: -5300 deg cm^2 dmol-res^-1 | effect of dirhodium binding on helicity (in words) [1]: completely disrupt helicity | fH, helicity content [1]: 21 | Rel. Hel %, relative helicity [1]: 39% | fH (TFE), helicity content [1]: 24

N[C@@H](CCC(=O)O)C(=O)O [Glu]
% conv. at 24 h [2, 7]: 76% | krel, relative modification rate [2]: 130

Ac-YGKAAAAEAAAEKAAAAK-NH2 [EE4]
[θ]220, residual molar ellipticity [1]: -12300 deg cm^2 dmol-res^-1 | effect of dirhodium binding on helicity (in words) [1]: increased helicity | fH, helicity content [1]: 41 | Rel. Hel %, relative helicity [1]: 75% | fH (TFE), helicity content [1]: 46

Ac-KAEAAAEAK-NH2 [sEE4]
[θ]220, residual molar ellipticity [1]: -400 deg cm^2 dmol-res^-1 | fH, helicity content [1]: 9 | Rel. Hel %, relative helicity [1]: 13% | fH (TFE), helicity content [1]: 8

Max(Rh2): dirhodium metallopeptide based on the leucine-zipper Max (SEQ ID NO: 16) (ARRKNFTFQQNINNLKRQEALLEQQVRAL; also: dirhodium metal complex)
conversion of c-Fos ([3]; 4° C.): 72% | c-Fos residue modified [3]: both Glu14 and Glu21 | conversion of c-Fos ([3]; −15° C.): 83% | TM [4]: 20 °C

Ac-YGKAAAAEAGADKAAAAK-NH2 [ED4G]
[θ]220, residual molar ellipticity [1]: -1100 deg cm^2 dmol-res^-1 | fH, helicity content [1]: 9 | Rel. Hel %, relative helicity [1]: 17% | fH (TFE), helicity content [1]: 10

CC[C@H](C)[C@H](NC(=O)[C@H](CCC(N)=O)NC(=O)[C@H](CCC(N)=O)NC(=O)[C@H](CCCNC(=N)N)NC(=O)[C@H](CC(C)C)NC(=O)[C@H](CO)NC(=O)[C@H](CC(N)=O)NC(=O)[C@H](C)NC(=O)[C@@H](NC(=O)[C@H](CO)NC(=O)[C@H](C)NC(=O)[C@H](CCC(=O)O)NC(=O)[C@H](CO)NC(=O)[C@H](CO)NC(=O)[C@@H](NC(=O)[C@H](CCC(=O)O)NC(=O)[C@H](C)NC(=O)[C@H](CCCCN)NC(=O)[C@H](CC(C)C)NC(=O)[C@@H](NC(=O)[C@H](CCCCN)NC(=O)[C@@H](NC(=O)[C@H](CCCNC(=N)N)NC(=O)[C@H](CCC(N)=O)NC(=O)[C@H](CCC(N)=O)NC(=O)[C@H](CC(C)C)NC(=O)[C@H](CCC(N)=O)NC(=O)[C@H](C)NC(=O)[C@H](C)NC(C)=O)C(C)C)[C@@H](C)O)[C@@H](C)CC)[C@@H](C)O)C(=O)N[C@@H](C)C(=O)N[C@@H](CCC(N)=O)C(=O)N[C@@H](CC(C)C)C(N)=O [Jun(Rh2)] (Ac-AAQLQQRVKTLKAEISSEASTANSLRQQIAQL-NH2; N-terminus and C-terminus assumed)
c-Fos residue modified [3]: Gln19 | solubility [5]: poor solubility

C[C@@H](O)[C@H](N)C(=O)O [Thr]
modification of variable residue (in words) [2]: not observed

Ac-YGKAAAADAGADKAAAAK-NH2 [DD4G]
[θ]220, residual molar ellipticity [1]: -1100 deg cm^2 dmol-res^-1 | fH, helicity content [1]: 9 | Rel. Hel %, relative helicity [1]: 17% | fH (TFE), helicity content [1]: 11

Ac-YGKAAAAEAGAEKAAAAK-NH2 [EE4G]
[θ]220, residual molar ellipticity [1]: -1900 deg cm^2 dmol-res^-1 | fH, helicity content [1]: 12 | Rel. Hel %, relative helicity [1]: 21% | fH (TFE), helicity content [1]: 13

NC(=O)CC[C@H](N)C(=O)O [Gln]
% conv. ([2]; 10 mol % K3a,eRh2, reaction time 6 hours, 2.5 mM diazo 1, 50 μM substrate, pH 6.2): > 95% | krel, relative modification rate [2]: 260

N[C@@H](CC(=O)O)C(=O)O [Asp]
% conv. at 24 h [2, 7]: 53% | krel, relative modification rate [2]: 100 | modification of variable residue (in words) [2]: modest conversion

N=C(N)NCCC[C@H](N)C(=O)O [Arg]
% conv. at 24 h [2, 6]: 73% | krel, relative modification rate [2]: 100

NCCCC[C@H](N)C(=O)O [Lys]
% conv. at 24 h [2, 6]: 8^g % | krel, relative modification rate [2]: 20 | modification of variable residue (in words) [2]: modest conversion

Ac-YGKAAAADAAEAKAAAAK-NH2 [DE3]
[θ]220, residual molar ellipticity [1]: -8000 deg cm^2 dmol-res^-1 | effect of dirhodium binding on helicity (in words) [1]: completely disrupt helicity | fH, helicity content [1]: 29 | Rel. Hel %, relative helicity [1]: 52% | fH (TFE), helicity content [1]: 32
